# Patent US20210017555A1, “METHOD FOR PRODUCING 4-AMINOCINNAMIC ACID, AND VECTOR AND HOST CELL USED IN SAME” (JAPAN SCIENCE AND TECHNOLOGY AGENCY, priority 2018, published 2021)
# Key:
# [1] = Resting-cell reaction of scFrm2-, scHbn1-, cdFLDZ-producing E. coli, 4-nitrocinnamic acid to 4-aminocinnamic acid; format: cell-based, Escherichia coli; settings: resting cells, 2.5 mM 4-nitrocinnamic acid, 30° C., 12 hours, pH 7.0; versus control E. coli
# Experimental: Each of the scFrm2-, scHbn1-, and cdFLDZ-producing Escherichia coli strains were precultured using 3 mL of LB medium containing 30 mg/L kanamycin sulfate at 28° C. for 16 hours with shaking at 300 rpm. 1 mL of this preculture liquid was inoculated to 100 mL of LB medium containing 30 mg/L kanamycin sulfate, cultured at 30° C. for 4 hours with shaking at 120 rpm, and after 0.1 mM IPTG was added, incubated further at 20° C. for 12 hours. The obtained bacterial cells were washed twice with a reaction buffer (100 mM potassium dihydrogen phosphate (KH2PO4), 1 mM magnesium sulfate (MgSO4), 0.5 mM thiamine chloride, pH 7.0).
# The resting cells thus obtained were suspended in a reaction buffer containing 2.5 mM 4-nitrocinnamic acid, and reacted at 30° C. for 12 hours with shaking at 300 rpm. After the reaction, the reaction supernatant was collected to quantify 4-aminocinnamic acid. The supernatant was transferred to a centrifuge tube, collected by centrifugation, and the reaction product was quantified using the above HPLC.
# (§1) The same experiment was also performed using the host Escherichia coli as a control.
# [2] = Enzyme activities of nfsA and nfsB in cell reactions, 4-nitrocinnamic acid to 4-aminocinnamic acid; format: cell-based, Escherichia coli; settings: 2 g/L 4-nitrocinnamic acid, 2% glycerol, pH 8.0, 37° C., 18 hours
# Experimental: Each of the nfsA- and nfsB-producing Escherichia coli strains was precultured using 5 mL of LB medium containing 40 mg/L of streptomycin sulfate at 28° C. for 16 hours with shaking at 300 rpm. 1 mL of this pre-cultured solution was inoculated to 100 mL of TB medium containing 80 mg/L streptomycin sulfate, cultured at 30° C. for 4 hours with shaking at 120 rpm. 0.1 mM IPTG was added, and the culture was further incubated at 30° C. for another 18 hours.
# The pH of the culture medium containing the obtained bacterial cells was adjusted to 8.0 by addition of 2N NaOH. 2 g/L of 4-nitrocinnamic acid and 2% final concentration of glycerol were suspended in this culture medium, and the reaction was carried out at 37° C. for 18 hours with shaking at 120 rpm. After the reaction, the reaction solution supernatant was collected to quantify 4-aminocinnamic acid. Specifically, the supernatant was transferred to a centrifuge tube, collected by centrifugation, and the reaction product was quantified using the above HPLC.
# The same experiment was also carried out using the host Escherichia coli as a control.
# [3] = Deammonase activity of purified enzymes by absorptiometry; format: biochemical; settings: purified recombinant enzyme 2 mg/mL, 50 mM Tris-HCl pH 8.6, 0.3 to 9.6 mM substrate, 380 nm, 10 minutes
# Experimental: • Apparatus: BECKMAN COULTER DU800 UV/Vis Spectrophotometer • Amount of enzyme: 2mg/mL • Buffer solution: 50mM Tris-HCl buffer (pH=8.6) • Concentration of substrate: 0.3mM to 9.6mM • Volume: 200μL • Measurement wavelength: From 4-nitrophenylalanine to 380 nm 4-nitrocinnamic acid: From phenylalanine to 305 nm cinnamic acid: • Measurement period: 10 minutes • Measurement temperature: 25° C.
# Each of the CamPAL-, LiePAL-, and RgPAL-producing Escherichia coli strains was inoculated to 5 mL of LB medium containing 30 mg/L kanamycin sulfate, and cultured at 28° C. for 16 hours (hereinafter also may be referred to as “preculture”). […]
# The enzyme activity was measured and quantified by measuring the absorbance of the reaction product at the absorption wavelength for 10 minutes using an absorptiometer.
# Specifically, regarding the deammonase activity for phenylalanine, 2 mg/mL of each of the above enzymes was added to 50 mM Tris-HCl buffer (pH=8.6) containing 0.3 to 9.6 mM phenylalanine to cause reaction, and the change in absorbance at a wavelength of 305 nm resulting from the formation of cinnamic acid was measured for 10 minutes. […]
# [4] = Resting-cell reaction of PAL-producing E. coli, 4-nitrophenylalanine to 4-nitrocinnamic acid; format: cell-based, Escherichia coli; settings: resting cells, 24 hours, 28° C., pH 8.5, 20 mM 4-nitrophenylalanine; versus control Escherichia coli
# Experimental: The CamPAL-, LiePAL-, and RgPAL-producing Escherichia coli strains mentioned above were precultured using 3 mL of LB medium containing 40 mg/L kanamycin sulfate at 28° C. for 16 hours with stirring at 300 rpm. 1 mL of this pre-cultured liquid was inoculated to 100 mL of LB medium containing 40 mg/L of kanamycin sulfate, cultured at 30° C. for 4 hours with shaking at 120 rpm, and after the addition of 0.5 mM of IPTG, incubated further for 20 hours. The obtained bacterial cells were washed twice with a reaction buffer (100 mM Tris-HCl buffer, pH 8.5).
# The resting cells obtained were suspended in a reaction buffer and reacted at 28° C. with shaking at 300 rpm. 20 mM of 4-nitrophenylalanine was added to the medium every 24 hours while the reaction was continued. The reaction supernatant was periodically collected to quantify 4-nitrophenylalanine and 4-nitrocinnamic acid.
# The supernatant was transferred to a centrifuge tube, collected by centrifugation, and the reaction product was quantified using high performance liquid chromatography (HPLC).
# as §1
Molecule,amount of 4-aminocinnamic acid in the medium supernatant [1],4-aminocinnamic acid converted from 4-nitrocinnamic acid [2] [g/L],other results
"scHbn1: enzyme (nitroreductase) derived from Saccharomyces cerevisiae, SEQ ID NO:9, expressed in E. coli (protein, listed as Saccharomyces cerevisiae, scHbn1 Polypeptide) MSAVATYLKTLTARRTIYALKPELPGEITINDIQSVVQTIIKETPTAFNSQPNRAVILTGETHKKVWDEVTKAIESPAGQKRPASARDEAFGSVIFFTDDKVTEKLKADFPAYAAAFPSFADHTSGAAQINSWVALEAMGLGGHLQHYNGYIKAALPSKIPESWTVQAQLVFGTPAAPPGEKTYIKNDVEIFN",remarkably increased as compared with the control E. coli,–,–
"scFrm2: enzyme (nitroreductase) derived from Saccharomyces cerevisiae, SEQ ID NO:7, expressed in E. coli (protein, listed as Saccharomyces cerevisiae, scFrm2 Polypeptide) MSPTGNYLNAITNRRTIYNLKPELPQGVGLDDVKRTVHVILKNTPTAFNSQVNRAVIIVGDTHKRIWDAVASAMPTAEAKKRPESCRDEAYGSVIFFTDEGPTEKLQRDFPALAAAFPTCAAHTTGAVQIQSWTALELLGLGANLQHYNDYVKSALPQDVPIAWTVQSQLVFGVPTALPEEKTFINNVINVYH",remarkably increased as compared with the control E. coli,–,–
"nfsA: nitroreductase derived from Escherichia coli, SEQ ID NO: 13, overexpressed in E. coli (protein, listed as Escherichia coli, nfsA Polypeptide) MTPTIELICGHRSIRHFTDEPISEAQREAIINSARATSSSSFLQCSSIIRITDKALREELVTLTGGQKHVAQAAEFWVFCADFNRHLQICPDAQLGLAEQLLLGVVDTAMMAQNALIAAESLGLGGVYIGGLRNNIEAVTKLLKLPQHVLPLFGLCLGWPADNPDLKPRLPASILVHENSYQPLDKGALAQYDEQLAEYYLTRGSNNRRDTWSDHIRRTIIKESRPFILDYLHKQGWATR",–,0.26,–
"cdFLDZ: enzyme derived from Clostridium difficile, SEQ ID NO: 11, expressed in E. coli (protein, Clostridium difficile; cdFLDZ Polypeptide) MKISSMFTPIRIGSMTVPNRFVVPPMGNNFANTDGTLSETSKAYYLERALGGFGLITIESSVVDKKAKGGPRKPCLYDDSTIDSFKNVIDACHDAGSKVSIQLQHAGSEGNEKVAGHPLKAASAIPASNGRNTPLAITTEEIYELIESYGDAALRAQKAGADAVEVHCAHGYLVSSFISQRTNKRVDEFGGCFENRMRLPRLIIENIRKKVGNSLAILCRINSTDDVPGGIDVHDSSVIAAYLEDCGIDGLHVSRSIHIHDEYMWAPTTLHAGFSAELVTEIKKAVSIPVITVGRYTEPQFAELMVRQGRCDLVAFGRQSLADPEMPNKAKNGKLDEMIPCIACLQGCVPNMFQGKPIACLANPILGHEAELKPAEISKEVLVVGGGVGGMLAAWVCAKRGHNVTLVEKSEVLGGQMRLAAYPPGKGDITNLVRSYISKCNQYGVKICTNTEATVELIKEKSPDVVIIATGATPLVLPIPGINDSGLIHAVDLLDGKKSCGKKVLVVGGGMVGCEVAAFLGEQEHEVTVIELREEVGADVISEHRKFLMNDFENYNIHTITGAKVSKFYDDGVDYLLTDGTEHDLKGFDSVVLAMGSRNYDPLSEVIKEVVKETYIVGDAVKARRALDATKEAFEVALNI",remarkably increased as compared with the control E. coli,–,–
"nfsB: nitroreductase derived from Escherichia coli, SEQ ID NO:15, overexpressed in E. coli (protein, listed as Escherichia coli, nfsB Polypeptide) MDIISVALKRHSTKAFDASKKLTPEQAEQIKTLLQYSPSSTNSQPWHFIVASTEEGKARVAKSAAGNYVFNERKMLDASHVVVFCAKTAMDDVWLKLVVDQEDADGRFATPEAKAANDKGRKFFADMHRKDLHDDAEWMAKQVYLNVGNFLLGVAALGLDAVPIEGFDAAILDAEFGLKEKGYTSLVVVPVGHHSVEDFNATLPKSRLPQNITLTEV",–,0.76,–
"RgPAL: phenylalanine ammonia-lyase derived from yeast Rhodotorula glutinis JN-1, SEQ ID NO: 5, expressed in E. coli (protein, listed as Rhodotorula glutinis, RgPAL Polypeptide) MAPSVDSIATSVANSLSNGLAGDLRKKTSGAGSLLPTTETTQIDIVERILADAGATDQIKLDGYTLTLGDVVGAARRGRTVKVADSPQIREKIDASVEFLRTQLDNSVYGVTTGFGGSADTRTEDAISLQKALLEHQLCGVLPTSMDGFALGRGLENSLPLEVVRGAMTIRVNSLTRGHSAVRIVVLEALTNFLNHGITPIVPLRGTISASGDLSPLSYIAASITGHPDSKVHVDGQIMSAQEAIALKGLQPVVLGPKEGLGLVNGTAVSASMATLALTDAHVLSLLAQANTALTVEAMVGHAGSFHPFLHDVTRPHPTQIEVARNIRTLLEGSKYAVHHETEVKVKDDEGILRQDRYPLRCSPQWLGPLVSDMIHAHSVLSLEAGQSTTDNPLIDLENKMTHHGGAFMASSVGNTMEKTRLAVALMGKVSFTQLTEMLNAGMNRALPSCLAAEDPSLSYHCKGLDIAAAAYTSELGHLANPVSTHVQPAEMGNQAINSLALISARRTAEANDVLSLLLATHLYCVLQAVDLRAMEFEHTKEFEPMVTDLLKQHFGALATADVEDKVRKSIYKRLQQNNSYDLEQRWHDTFSVATGAVVEALAGNEVSLASLNAWKVACAEKAIALTRTVRDSFWAAPSSASPALKYLSPRTRILYSFVREDVGVKARRGDVYLGKQEVTIGTNVSRIYEAIKDGRIAPVLVKMMA",–,–,capacity to convert 4-nitrophenylalanine to 4-nitrocinnamic acid [3]: have a capacity to covert 4-nitrophenylalanine to 4-nitrocinnamic acid; amount of 4-nitrocinnamic acid in the reaction supernatant [4]: significantly higher than that of the control Escherichia coli
